The text below walks through data of the supplement of paper PMC9112550, “Optimization of the antimicrobial peptide Bac7 by deep mutational scanning” (BMC Biology, 2022).
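Note: peptides expressed intracellularly from a pBAD plasmid library in pooled LB shake-flask culture, induced with 0.3% L-arabinose, DNA abundance read by NGS, three biological replicates, DESeq2 with apeglm shrinkage.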

The subject of the data set is Escherichia coli TOP10. Kind of data set: shrunken log2 fold change of peptide-encoding DNA abundance (4.5 h post-induction vs induction); higher = less antimicrobial activity (less host growth inhibition). The note with it: time post-induction: 4.5 h; library: site-saturation at positions 5, 18, 19, 20.
Regarding RRIRIRPPRLPRPRPRPWVLPRP, the “shrunken log2 fold change” value was -0.142.

Consider RRIRPRPPRLPRPRPRPLDNPRP, for which the “shrunken log2 fold change” value was -0.171. Turning to RRIRTRPPRLPRPRPRPKTGPRP, the “shrunken log2 fold change” value is -0.104. Turning to RRIRMRPPRLPRPRPRPYNRPRP, the “shrunken log2 fold change” value is -0.336. In the case of RRIRYRPPRLPRPRPRPGKKPRP, the “shrunken log2 fold change” value was -0.00101. As to RRIRGRPPRLPRPRPRPHHQPRP, the “shrunken log2 fold change” value was -0.185. To RRIRERPPRLPRPRPRPRYDPRP belongs -0.246.

As for RRIRTRPPRLPRPRPRPFGNPRP, the “shrunken log2 fold change” value turned out to be 0.101. On to RRIRMRPPRLPRPRPRPGSSPRP, for which the “shrunken log2 fold change” value turned out to be 0.198. Take RRIRHRPPRLPRPRPRPWTWPRP: the “shrunken log2 fold change” value was -0.00897.

Consider RRIRARPPRLPRPRPRPIVNPRP, for which the “shrunken log2 fold change” value was -0.178. For the sequence RRIRNRPPRLPRPRPRPRVFPRP, the “shrunken log2 fold change” value is -0.036.

Take RRIRDRPPRLPRPRPRPQTTPRP: the “shrunken log2 fold change” value stood at 0.0462. As to RRIRLRPPRLPRPRPRPMNKPRP, the “shrunken log2 fold change” value is -0.504. As to RRIRWRPPRLPRPRPRPGLNPRP, the “shrunken log2 fold change” value came to 0.0915. The same measure for RRIRIRPPRLPRPRPRPSEDPRP: -0.212; for RRIRQRPPRLPRPRPRPDENPRP: 0.106. Regarding RRIRGRPPRLPRPRPRPVCCPRP, the “shrunken log2 fold change” value stood at 0.957. In the case of RRIRCRPPRLPRPRPRPHRMPRP, the “shrunken log2 fold change” value is -0.401. As to RRIRNRPPRLPRPRPRPDGLPRP, the “shrunken log2 fold change” value came to 0.038.

As for RRIRMRPPRLPRPRPRPMGAPRP, the “shrunken log2 fold change” value was 1.18. In the case of RRIRRRPPRLPRPRPRPEFWPRP, the “shrunken log2 fold change” value came out at 0.736. Regarding RRIRKRPPRLPRPRPRPSHMPRP, the “shrunken log2 fold change” value was -0.0291. With RRIRARPPRLPRPRPRPATHPRP, the “shrunken log2 fold change” value was determined as 0.186. On to RRIRHRPPRLPRPRPRPRWFPRP, for which the “shrunken log2 fold change” value is 0.161.

Consider RRIRKRPPRLPRPRPRPIDSPRP, for which the “shrunken log2 fold change” value came out at 0.229. With RRIRQRPPRLPRPRPRPFQKPRP, the “shrunken log2 fold change” value was -0.173.

In the case of RRIRLRPPRLPRPRPRPPETPRP, the “shrunken log2 fold change” value worked out at 0.0221. To RRIRSRPPRLPRPRPRPPRVPRP belongs 0.142.

On to RRIRYRPPRLPRPRPRPCSLPRP, for which the “shrunken log2 fold change” value is 0.0201. Regarding RRIRYRPPRLPRPRPRPSQVPRP, the “shrunken log2 fold change” value was -0.518. With RRIRVRPPRLPRPRPRPHQWPRP, the “shrunken log2 fold change” value was -0.239.

RRIRCRPPRLPRPRPRPVLAPRP: the “shrunken log2 fold change” value was -0.0206. To RRIRDRPPRLPRPRPRPTGYPRP belongs 0.0485; to RRIRRRPPRLPRPRPRPYFPPRP, 0.31; to RRIRQRPPRLPRPRPRPHKLPRP, -0.544.

As to RRIRTRPPRLPRPRPRPVYSPRP, the “shrunken log2 fold change” value was -0.239. For RRIRSRPPRLPRPRPRPHVPPRP, the “shrunken log2 fold change” value is -0.149. To RRIRMRPPRLPRPRPRPGRPPRP belongs 0.383; to RRIRIRPPRLPRPRPRPTFFPRP, -0.292.

Consider RRIRVRPPRLPRPRPRPEFDPRP, for which the “shrunken log2 fold change” value worked out at 0.197. To RRIRLRPPRLPRPRPRPEPPPRP belongs 0.53; to RRIRNRPPRLPRPRPRPWAVPRP, 0.0374. Take RRIRMRPPRLPRPRPRPTIPPRP: the “shrunken log2 fold change” value was -0.316. For the sequence RRIRTRPPRLPRPRPRPWLHPRP, the “shrunken log2 fold change” value is -0.166. For the sequence RRIRERPPRLPRPRPRPYSAPRP, the “shrunken log2 fold change” value was -0.269. With RRIRQRPPRLPRPRPRPHGCPRP, the “shrunken log2 fold change” value was determined as 0.0414. As to RRIRYRPPRLPRPRPRPKPSPRP, the “shrunken log2 fold change” value worked out at 0.433. As for RRIRTRPPRLPRPRPRPNEWPRP, the “shrunken log2 fold change” value was -0.0827. With RRIRRRPPRLPRPRPRPMQNPRP, the “shrunken log2 fold change” value was determined as 0.362. Turning to RRIRYRPPRLPRPRPRPNHEPRP, the “shrunken log2 fold change” value is -0.657. As for RRIRNRPPRLPRPRPRPNPRPRP, the “shrunken log2 fold change” value was 0.286. For the sequence RRIRLRPPRLPRPRPRPNYDPRP, the “shrunken log2 fold change” value was -0.372. Take RRIRGRPPRLPRPRPRPKGWPRP: the “shrunken log2 fold change” value came to 1.46. Take RRIRLRPPRLPRPRPRPRCQPRP: the “shrunken log2 fold change” value was 0.72. To RRIRIRPPRLPRPRPRPCTSPRP belongs -0.438. As for RRIRMRPPRLPRPRPRPFPVPRP, the “shrunken log2 fold change” value was -0.175. In the case of RRIRHRPPRLPRPRPRPIPCPRP, the “shrunken log2 fold change” value was -0.0558. As to RRIRRRPPRLPRPRPRPHGCPRP, the “shrunken log2 fold change” value came out at 0.000335. Take RRIRKRPPRLPRPRPRPFYKPRP: the “shrunken log2 fold change” value is -0.456. For the sequence RRIRGRPPRLPRPRPRPIQFPRP, the “shrunken log2 fold change” value was -0.146.

As for RRIRRRPPRLPRPRPRPGDMPRP, the “shrunken log2 fold change” value was 0.0846. The same measure for RRIRDRPPRLPRPRPRPRWNPRP: 0.0976; for RRIRLRPPRLPRPRPRPPDTPRP: 0.257; for RRIRNRPPRLPRPRPRPLFEPRP: 0.205.

Take RRIRVRPPRLPRPRPRPPSFPRP: the “shrunken log2 fold change” value was 0.0364. To RRIRNRPPRLPRPRPRPQAYPRP belongs -0.3. Take RRIRHRPPRLPRPRPRPQRWPRP: the “shrunken log2 fold change” value came to 0.00359. On to RRIRGRPPRLPRPRPRPSNMPRP, for which the “shrunken log2 fold change” value was -0.113.

Consider RRIRCRPPRLPRPRPRPFRRPRP, for which the “shrunken log2 fold change” value was -0.237. In the case of RRIRYRPPRLPRPRPRPYIWPRP, the “shrunken log2 fold change” value was -0.29. As for RRIRDRPPRLPRPRPRPPSFPRP, the “shrunken log2 fold change” value is 0.155.

In the case of RRIRLRPPRLPRPRPRPEWTPRP, the “shrunken log2 fold change” value was -0.019.

As for RRIRSRPPRLPRPRPRPYPMPRP, the “shrunken log2 fold change” value was -0.035.

For RRIRDRPPRLPRPRPRPYPGPRP, the “shrunken log2 fold change” value is -0.0524.

In the case of RRIRPRPPRLPRPRPRPHQCPRP, the “shrunken log2 fold change” value is -0.0701. Consider RRIRIRPPRLPRPRPRPAGMPRP, for which the “shrunken log2 fold change” value is -0.0321.

Take RRIRHRPPRLPRPRPRPCSFPRP: the “shrunken log2 fold change” value was -0.309. Consider RRIRRRPPRLPRPRPRPIMQPRP, for which the “shrunken log2 fold change” value was -0.0408.

Turning to RRIRNRPPRLPRPRPRPAGRPRP, the “shrunken log2 fold change” value turned out to be 0.486. On to RRIRHRPPRLPRPRPRPNISPRP, for which the “shrunken log2 fold change” value is -0.319. With RRIRSRPPRLPRPRPRPMSKPRP, the “shrunken log2 fold change” value is -0.032. RRIRDRPPRLPRPRPRPAATPRP: the “shrunken log2 fold change” value was 1.9. To RRIRCRPPRLPRPRPRPDHEPRP belongs -0.144. The same measure for RRIRLRPPRLPRPRPRPYPKPRP: -0.0574.

In the case of RRIRGRPPRLPRPRPRPRGRPRP, the “shrunken log2 fold change” value was determined as 1.52.

On to RRIRMRPPRLPRPRPRPPGQPRP, for which the “shrunken log2 fold change” value worked out at 1.24. The same measure for RRIRGRPPRLPRPRPRPRAYPRP: 0.338. Consider RRIRKRPPRLPRPRPRPCQGPRP, for which the “shrunken log2 fold change” value is -0.141. As to RRIRIRPPRLPRPRPRPGVSPRP, the “shrunken log2 fold change” value is -0.351. Turning to RRIRERPPRLPRPRPRPWCKPRP, the “shrunken log2 fold change” value was determined as 0.00398. On to RRIRKRPPRLPRPRPRPHHCPRP, for which the “shrunken log2 fold change” value is 0.0484. Turning to RRIRDRPPRLPRPRPRPWAGPRP, the “shrunken log2 fold change” value is 0.0503.

On to RRIRYRPPRLPRPRPRPHASPRP, for which the “shrunken log2 fold change” value came to 0.0262.

In the case of RRIRFRPPRLPRPRPRPPKIPRP, the “shrunken log2 fold change” value was 0.145. RRIRGRPPRLPRPRPRPYKPPRP: the “shrunken log2 fold change” value was -0.571. Turning to RRIRHRPPRLPRPRPRPHHHPRP, the “shrunken log2 fold change” value is -1. Regarding RRIRARPPRLPRPRPRPQICPRP, the “shrunken log2 fold change” value worked out at 0.176.

With RRIRLRPPRLPRPRPRPGLIPRP, the “shrunken log2 fold change” value amounted to 0.045. In the case of RRIRPRPPRLPRPRPRPSVDPRP, the “shrunken log2 fold change” value was -0.187. As to RRIRMRPPRLPRPRPRPVSPPRP, the “shrunken log2 fold change” value is 0.418. With RRIRWRPPRLPRPRPRPSDHPRP, the “shrunken log2 fold change” value was -0.474. The same measure for RRIRARPPRLPRPRPRPCYVPRP: -0.279; for RRIRDRPPRLPRPRPRPGEDPRP: -0.000687.

On to RRIRFRPPRLPRPRPRPIFFPRP, for which the “shrunken log2 fold change” value is -0.137. Consider RRIRRRPPRLPRPRPRPLAVPRP, for which the “shrunken log2 fold change” value worked out at 0.176. RRIRKRPPRLPRPRPRPNFTPRP: the “shrunken log2 fold change” value is 0.156. On to RRIRNRPPRLPRPRPRPRCMPRP, for which the “shrunken log2 fold change” value is -0.5. On to RRIRSRPPRLPRPRPRPFHMPRP, for which the “shrunken log2 fold change” value is -0.365.

As for RRIRQRPPRLPRPRPRPTHHPRP, the “shrunken log2 fold change” value was found to be 0.0945. Turning to RRIRIRPPRLPRPRPRPYFTPRP, the “shrunken log2 fold change” value is -0.702.

RRIRQRPPRLPRPRPRPCCQPRP: the “shrunken log2 fold change” value is -0.00534. For RRIRARPPRLPRPRPRPYMMPRP, the “shrunken log2 fold change” value is -1.22. The same measure for RRIRIRPPRLPRPRPRPVWNPRP: -0.576; for RRIRVRPPRLPRPRPRPYHFPRP: -0.111; for RRIRRRPPRLPRPRPRPNNFPRP: -0.00104. With RRIRRRPPRLPRPRPRPSFIPRP, the “shrunken log2 fold change” value was -0.391. The same measure for RRIRRRPPRLPRPRPRPHAIPRP: -0.042. Turning to RRIRGRPPRLPRPRPRPDAVPRP, the “shrunken log2 fold change” value was 1.81. As to RRIRIRPPRLPRPRPRPNTAPRP, the “shrunken log2 fold change” value was -0.0523. To RRIRIRPPRLPRPRPRPSARPRP belongs -0.067; to RRIRWRPPRLPRPRPRPPPRPRP, 1.14; to RRIRNRPPRLPRPRPRPRWAPRP, 0.417. Turning to RRIRFRPPRLPRPRPRPKFIPRP, the “shrunken log2 fold change” value was -1.02.

Turning to RRIRRRPPRLPRPRPRPHVRPRP, the “shrunken log2 fold change” value worked out at 0.0936.
